Target: human endogenous fatty acid synthase (FASN) (human) (UniProt P49327)
Assay: cryo-EM structure; purified endogenous FASN at 0.5-1.0 mg/ml in TBS buffer, alone or incubated 30 min with 1 mM orlistat or 3 mM 1,3-DBP; C2 symmetry applied; condensing and modifying wings refined separately

**Q.** How did the stoichiometry N turn out when “human endogenous fatty acid synthase (FASN), P49327 1-2511” was run?
**A.** 2
